Experimental data as given in the supplement of paper PMC5998384.

Key:
HeLa Kyoto [1] = experiment: melting temperature (median over replicates), in situ; higher = more thermally stable
HeLa Kyoto [2] = experiment: solubility in G1/S (NP-40 vs SDS abundance) (log2 ratio); higher = more soluble; conditions: cell cycle stage: G1/S
HeLa Kyoto [3] = experiment: solubility change mitosis vs G1/S (difference of NP-40 vs SDS log2 ratios) (log2 ratio difference); higher = more soluble in mitosis
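Throughout, for melting temperature (median over replicates), in situ: HeLa Kyoto cells synchronized by double thymidine or nocodazole block, proteins quantified by TMT10plex mass spectrometry, three independent biological replicates.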
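Throughout, for solubility change mitosis vs G1/S (difference of NP-40 vs SDS log2 ratios): synchronized HeLa Kyoto cells (double thymidine block for G1/S, nocodazole release for mitosis), protein amounts in NP-40 versus SDS lysates quantified by mass spectrometry, three biological replicates.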
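Throughout, for solubility in G1/S (NP-40 vs SDS abundance): HeLa Kyoto cells arrested at G1/S by double thymidine block, proteins quantified by TMT10plex mass spectrometry in mild NP-40 versus SDS extracts, three biological replicates.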

Sequence	melting temperature (HeLa Kyoto [1]; cell cycle stage: G1/S)	melting temperature (HeLa Kyoto [1]; cell cycle stage: mitosis)	solubility in G1/S (log2) (HeLa Kyoto [2])	solubility change mitosis (log2) (HeLa Kyoto [3])
MDDSETGFNLKVVLVSFKQCLDEKEEVLLDPYIASWKGLVRFLNSLGTIFSFISKDVVSKLRIMERLRGGPQSEHYRSLQAMVAHELSNRLVDLERRSHHPESGCRTVLRLHRALHWLQLFLEGLRTSPEDARTSALCADSYNASLAAYHPWVVRRAVTVAFCTLPTREVFLEAMNVGPPEQAVQMLGEALPFIQRVYNVSQKLYAEHSLLDLP [CPTP]	49.1 °C	48.4 °C	-0.0351	-0.256
MPAFLGLKCLGKLCSSEKSKVTSSERTSARGSNRKRLIVEDRRVSGTSFTAHRRATITHLLYLCPKDYCPRGRVCNSVDPFVAHPQDPHHPSEKPVIHCHKCGEPCKGEVLRVQTKHFHIKCFTCKVCGCDLAQGGFFIKNGEYLCTLDYQRMYGTRCHGCGEFVEGEVVTALGKTYHPNCFACTICKRPFPPGDRVTFNGRDCLCQLCAQPMSSSPKETTFSSNCAGCGRDIKNGQALLALDKQWHLGCFKCKSCGKVLTGEYISKDGAPYCEKDYQGLFGVKCEACHQFITGKVLEAGDKHYHPSCARCSRCNQMFTEGEEMYLQGSTVWHPDCKQSTKTEEKLRPTRTSSESIYSRPGSSIPGSPGHTIYAKVDNEILDYKDLAAIPKVKAIYDIERPDLITYEPFYTSGYDDKQERQSLGESPRTLSPTPSAEGYQDVRDRMIHRSTSQGSINSPVYSRHSYTPTTSRSPQHFHRPGNEPSSGRNSPLPYRPDSRPLTPTYAQAPKHFHVPDQGINIYRKPPIYKQHAALAAQSKSSEDIIKFSKFPAAQAPDPSETPKIETDHWPGPPSFAVVGPDMKRRSSGREEDDEELLRRRQLQEEQLMKLNSGLGQLILKEEMEKESRERSSLLASRYDSPINSASHIPSSKTASLPGYGRNGLHRPVSTDFAQYNSYGDVSGGVRDYQTLPDGHMPAMRMDRGVSMPNMLEPKIFPYEMLMVTNRGRNKILREVDRTRLERHLAPEVFREIFGMSIQEFDRLPLWRRNDMKKKAKLF [ABLIM1]	46.2 °C	51.7 °C	-0.8	0.599
MEPPNLYPVKLYVYDLSKGLARRLSPIMLGKQLEGIWHTSIVVHKDEFFFGSGGISSCPPGGTLLGPPDSVVDVGSTEVTEEIFLEYLSSLGESLFRGEAYNLFEHNCNTFSNEVAQFLTGRKIPSYITDLPSEVLSTPFGQALRPLLDSIQIQPPGGSSVGRPNGQS [DESI1]	47.1 °C	48.4 °C	0.341	-0.0645
MAMVVSTWRDPQDEVPGSQGSQASQAPPVPGPPPGAPHTPQTPGQGGPASTPAQTAAGGQGGPGGPGSDKQQQQQHIECVVCGDKSSGKHYGQFTCEGCKSFFKRSVRRNLSYTCRANRNCPIDQHHRNQCQYCRLKKCLKVGMRREAVQRGRMPPTQPTHGQFALTNGDPLNCHSYLSGYISLLLRAEPYPTSRFGSQCMQPNNIMGIENICELAARMLFSAVEWARNIPFFPDLQITDQVALLRLTWSELFVLNAAQCSMPLHVAPLLAAAGLHASPMSADRVVAFMDHIRIFQEQVEKLKALHVDSAEYSCLKAIVLFTSDACGLSDVAHVESLQEKSQCALEEYVRSQYPNQPTRFGKLLLRLPSLRTVSSSVIEQLFFVRLVGKTPIETLIRDMLLSGSSFNWPYMAIQ [NR2F2]	–	50.3 °C	-0.00984	-0.152
MMWQKYAGSRRSMPLGARILFHGVFYAGGFAIVYYLIQKFHSRALYYKLAVEQLQSHPEAQEALGPPLNIHYLKLIDRENFVDIVDAKLKIPVSGSKSEGLLYVHSSRGGPFQRWHLDEVFLELKDGQQIPVFKLSGENGDEVKKE [COA1]	54.7 °C	55.7 °C	0.0268	0.0489
